Reference: the DeepSol protein solubility set

Experiment: soluble on expression in E. coli; label from the status in PepcDB or PDB records

Sequence	soluble on expression in E. coli
MGHHHHHHSHMIGKCTHVVDCRETMGMGEGGGIAQRGTFAQCGSEVLAVAMSPGRRHITKPVCEITFALREANIMTSTIVLNAGAGVPQDAPSAGAGSLFGLTPAEVEQMKRHKLLVVHLGGVKNHITYKARLILRNVDRPCIIICEYPVDFEDFAKIGVRTRAVMPDEPKTKGTIVDIVSGVIRGETCPQEKLDEIIRKVKLALGGA	soluble
MGHHHHHHSHMKPSGEDQAALAAGPWEECFQAAVQLALRAGQIIRKALTEEKRVSTKTSAADLVTETDHLVEDLIISELRERFPSHRFIAEEAAASGAKCVLTHSPTWIIDPIDGTCNFVHRFPTVAVSIGFAVRQELEFGVIYHCTEERLYTGRRGRGAFCNGQRLRVSGETDLSKALVLTEIGPKRDPATLKLFLSNMERLLHAKAHGVRVIGSSTLALCHLASGAADAYYQFGLHCWDLAAATVIIREAGGIVIDTSGGPLDLMACRVVAASTREMAMLIAQALQTINYGRDDEK	not soluble
MGHHHHHHSHMLLTMPGGVAKAGYLHKKGGTQLQLLKWPLRFVIIHKRCVYYFKSSTSASPQGAFSLSGYNRVMRAAEETTSNNVFPFKIIHISKKHRTWFFSASSEEERKSWMALLRREIGHFHEKKDLP	soluble
MGHHHHHHSHMLTKFETKSARVKGLSFHPKRPWILTSLHNGVIQLWDYRMCTLIDKFDEHDGPVRGIDFHKQQPLFVSGGDDYKIKVWNYKLRRCLFTLLGHLDYIRTTFFHHEYPWILSASDDQTIRVWNWQSRTCVCVLTGHNHYVMCAQFHPTEDLVVSASLDQTVRVWDISGLRKKNLSPGAVESDVRGITGVDLFGTTDAVVKHVLEGHDRGVNWAAFHPTMPLIVSGADDRQVKIWRMNESKAWEVDTCRGHYNNVSCAVFHPRQELILSNSEDKSIRVWDMSKRTGVQTFRRDHDRFWVLAAHPNLNLFAAGHDGGMIVFKLERERPA	not soluble
MGHHHHHHSHMMSPGLLLKPWWGGAQSEMGRNGMLEGCSVMSVGASRLGEGRVRPRAHSRRPVTRPRWRAAGPCTGTCQGGSHSRTLVLRLKAVSTTPTSANDLVQIKFRRDGGNRVVEALNLSEKRKDRKALCFSQSLHLQGEEIELTALSRSFQLRNVYFMISNI	not soluble
MGHHHHHHSHMNLGKESRAQTLQNGRRHIHHLGNQLQLNQHCLDTAFNFFKMAVSRHLTRGRKMAHVIAACLYLVCRTEGTPHMLLDLSDLLQVNVYVLGKTFLLLARELCINAPAIDPCLYIPRFAHLLEFGEKNHEVSMTALRLLQRMKRDWMHTGRRPSGLCGAALLVAARMHDFRRTVKEVISVVKVCESTLRKRLTEFEDTPTSQLTIDEF	not soluble
MGHHHHHHSHMNSRRRKAQFFLGTTNKRAKTVVLHIDGLDDTSRRNLCEEALLKIKGVISFTFQMAVQRCVVRIRSDLKAEALASAIASTKVMKAQQVVKSESGEEMLVPFQDTPVEVEQNTELPDYLPEDESPTKEQDKAVSRVGSHPEGGASWLSTAANFLSRSFYW	not soluble
MGHHHHHHSHMPARTDSVIIADQTPTPTRFLKNCEEVGLFNELASSFEHEFKKAADEDEKKARSRTVAKKLVAAAGPLDMSLPSTPDIKIKEEEPVEVDSSPPDSPASSPCSPPLKEKEVTPKPVLISTPTPTIVRPGSLPLHLGYDPLHPTLPSPTSVITQAPPSNRQMGSPTGSLPLVMHLANGQTMPVLPGPPVQMPSVISLARPVSMVPNIPGIPGPPVNSSGSISPSGHPIPSEAKMRLKATLTHQVSSINGGCGMVVGTASTMVTARPEQSQILIQHPDAPSPAQPQVSPAQPTPSTGGRRRRTVDEDPDERRQRFLERNRAAASRCRQKRKLWVSSLEKKAEELTSQNIQLSNEVTLLRNEVAQLKQLLLAHKDCPVTALQKKTQGYLESPKESSEPTGSPAPVIQHSSATAPSNGLSVRSAAEAVATSVLTQMA	soluble
MGHHHHHHSHMPASLALLQPRAMMKTLSSGNCTLSVPAKNSYRMVVLGASRVGKSSIVSRFLNGRFEDQYTPTIEDFHRKVYNIRGDMYQLDILDTSGNHPFPAMRRLSILTGDVFILVFSLDNRESFDEVKRLQKQILEVKSCLKNKTKEAAELPMVICGNKNDHGELCRQVPTTEAELLVSGDENCAYFEVSAKKNTNVDEMFYVLFSMAKLPHEMSPALHRKISVQYGDAFHPRPFCMRRVKEMDAYGMVSPFARRPSVNSDLKYIKAKVLREGQARERDKCTIQ	not soluble
MGHHHHHHSHMPATLLRAVARSHHILSKAHQCRRIGHLMLKPLKEFENTTCSTLTIRQSLDLFLPDKTASGLNKSQILEMNQKKSDTSMLSPLNAARCQDEKAHLPTMKSFGTHRRVTHKPNLLGSKWFIKILKRHFSSVSTETFVPKQDFPQVKRPLKASRTRQPSRTNLPVLSVNEDLMHCTAFATADEYHLGNLSQDLASHGYVEVTSLPRGTSS	not soluble
MGHHHHHHSHMPSLNLFPSVSDSGFWTGGTALRNPPSRPPYLSIAMTTLVSLATDLKYGSTLLGRIKTVLDASVAQLTVADVTTEDIVNFLNSLNGIDHELFSFIRTYPVFFVLHLCTLDRTQTYTSGQVIKTIKHLITTFREVLCEDMGADNDSIISNSNILKDCSWYLTKLETEQMSTSIPHLPKSCITFPCMEQVHHLVHNATLATLPNSWTSPLPSLNSVYVQWFVLSYKHKVFPDEVPSSNIQDLADKMTNIYKHLFVPHTSQLTGASIILARSLDILSQFTPLEKIPSNSPAVAFGDDELSNIPSNCHLMFGHLIESIYMGMTYACTLGAVEQFIREAFDVVLGVASEIKRTASLSDLPTVTKLVNIKRILIEHGLSETRCEEYAQALPKWQHREGIYPFEETLDHFHQKLSTLIKFCLEFYNTLMLVSPTSISHSYLKENNYLLQLDRKSAASQGQGPDDINLLEKVFTFVYPQVPGQDLQRIHDAIDSDIMRTLFFSWVNRNWGIVLITQNPLMEPSCEHQVSEERVAAYCKRMPVGDLSYEPAMVSHKMFYKYFIRHIVGPTIQGIFSRKTSRNRALFQIRWLLSFAITDTPQLQEIRRPLGMFYFELLDIINGTNKPSAMKNLLDHALDLKKKINKINQTFSIPQDLILYLFVLDTGASYINSVDYITAIIPKVEHLLLRGRNILRLGSILCHTKYNYHPLTHQFTILSSSGQILEVHLETLKSLISQVEKDHSQLLMEITDLEGELRGEYSTVLSLLQDLEAYKQHELGIEFDTEPWNQLKQSFSGILSRISSGLSLLSKGCSSCLRKRFHDLFSQEIITPTILKAASAGNVEIIKNLKEIPVNLMAPPTDTSMTQAGGNPTDEDLTMLYSTYPQIFSQNAARGEKHPPQLKKYSSTYDRIPLDVNWQIFTQQTYTAEHAECPYTIVKIHDIIKLLS	not soluble
MGHHHHHHSHMQEQVLYPLEAEVTMVTSFQDADPMGVIYHGNFFRYFEEARRVLMEKIQYGYRDMQDSGYMWPIIDTRVKYVKAIPFNHTIRITAQLTEWENRLRVDYVIYDAETNQRMCKAHTTQVAVSIEKQEMCFVSPAVFLDKVEQWHNHGSLN	soluble
MGHHHHHHSHMRPELLEYYIKVILDYNTAHNKVALSECYTVASVAEMPQNYRPHPQRFTYCSQVLGLHCYKKGIHYWEVELQKNNFCGVGICYGSMNRQGPESRLGRNSASWCVEWFNTKISAWHNNVEKTLPSTKATRVGVLLNCDHGFVIFFAVADKVHLMYKFRVDFTEALYPAFWVFSAGATLSICSPK	not soluble
MGHHHHHHSHMRRAELAGLKTMAWVPAESAVEELMPRLLPVEPCDLTEGFDPSVPPRTPQEYLRRVQIEAAQCPDVVVAQIDPKKLKRKQSVNISLSGCQPAPEGYSPTLQWQQQQVAQFSTVRQNVNKHRSHWKSQQLDSNVTMPKSEDEEGWKKFCLGEKLCADGAVGPATNESPGIDYVQIGFPPLLSIVSRMNQATVTSVLEYLSNWFGERDFTPELGRWLYALLACLEKPLLPEAHSLIRQLARRCSEVRLLVDSKDDERVPALNLLICLVSRYFDQRDLADEPS	not soluble
MGHHHHHHSHMSLKGKRIGFGFTGSHCTYEEVMPHLEKLIAEGAEVRPVVSYTVQSTNTRFGEGAEWIKKIEEITGFKAINSIVGAEPLGPKIPLDCMVIAPLTGNSMSKFANAMTDSPVLMAAKATLRNGKPVVLAVSTNDALGLNGVNLMRLMATKNIYFVPFGQDAPEKKPNSMVARMELLEDTVLEALQGKQLQPVVVEKFRYMN	soluble
MGHHHHHHSHMTDDKDVLRDVWFGRIPTCFTLYQDEITEREAEPYYLLLPRVSYLTLVTDKVKKHFQKVMRQEDISEIWFEYEGTPLKWHYPIGLLFDLLASSSALPWNITVHFKSFPEKDLLHCPSKDAIEAHFMSCMKEADALKHKSQVINEMQKKDHKQLWMGLQNDRFDQFWAINRKLMEYPAEENGFRYIPFRIYQTTTERPFIQKLFRPVAADGQLHTLGDLLKEVCPSAIDPEDGEKKNQVMIHGIEPMLETPLQWLSEHLSYPDNFLHISIIPQPTD	not soluble
MGHHHHHHSHMTPGVVHASPPQSQRVPRQAPCEWAIRNIGQKPKEPNCHNCGTHIGLRSKTLRGTPNYLPIRQDTHPPSVIFCLAGVGVPGLPV	not soluble
MGHHHHHHSHMTSGPGGRSAAAGGRKENHQWYVCNREKLCESLQAVFVQSYLDQGTQIFLNNSIEKSGWLFIQLYHSFVSSVFSLFMSRTSINGLLGRGSMFVFSPDQFQRLLKINPDWKTHRLLDLGAGDGEVTKIMSPHFEEIYATELSETMIWQLQKKKYRVLGINEWQNTGFQYDVISCLNLLDRCDQPLTLLKDIRSVLEPTRGRVILALVLPFHPYVENGGKWEKPSEILEIKGQNWEEQVNSLPEVFRKAGFVIEAFTRLPYLCEGDMYNDYYVLDDAVFVLKPV	not soluble
MGHHHHHHSHMVETVSTKNTKNWHAPVVPAAWEAEAGESLEPWRWRLQWAGIASLHSSLGDRARLRLKKKKKKRKGHFPIQKSRKYVPFLKGICSSTPVGISRQVGQETEKRNKTQRQSIEKERGAQGTGALSLRGPAGALVSEFPQYLLIIIFTILARGV	not soluble
MGHHHHHHSHMVKPLSPLNIQKLARHHGPRLWSQLLGRLRQVGHVGSGVRDQPGQHGETPISTKNTKISQASWPTPVVPATREAEVEGSLKSWGQGCSELLSHHCTPAWATVRPCLKKKRKMKQKLTCLLPPN	not soluble
MGHHHHHHSHMVTMEELREMDCSVLKRLMNRDENGGGAGGSGSHGTLGLPSGGKCLLLDCRPFLAHSAGYILGSVNVRCNTIVRRRAKGSVSLEQILPAEEEVRARLRSGLYSAVIVYDERSPRAESLREDSTVSLVVQALRRNAERTDICLLKGGYERFSSEYPEFCSKTKALAAIP	not soluble
MGHHHHHHSHNLGPRLTPLLQEEDSHQRLLMGLMVSELKDHFLRHLQGVEKKKIEQMVLDYISKLLDLICHIVETNWRKHNLHSWVLHFNSRGSAAEFAVFHIMTRILEATNSLFLPLPPGFHTLHTILGVQCLPLHNLLHCIDSGVLLLTETAVIRLMKDLDNTEKNEKLKFSIIVRLPPLIGQKICRLWDHPMSSNIISRNHVTRLLQNYKKQPRNSMINKSSFSVEFLPLNYFIEILTDIESSNQALYPFEGHDNVDAEFVEEAALKHTAMLLGL	not soluble
MGHHHHHHSHNTALVLCPFKDSGCKHRCPKLAMARHVEESVKPHLAMMCALVSRQRQELQELRRELEELSVGSDGVLIWKIGSYGRRLQEAKAKPNLECFSPAFYTHKYGYKLQVSAFLNGNGSGEGTHLSLYIRVLPGAFDNLLEWPFARRVTFSLLDQSDPGLAKPQHVTETFHPDPNWKNFQKPGTWRGSLDESSLGFGYPKFISHQDIRKRNYVRDDAVFIRAAVELPRKILS	not soluble
